US20210205211A1, “PERCUTANEOUS ABSORPTION PREPARATION” (KYUSHU UNIVERSITY, NATIONAL UNIVERSITY CORPORATION, priority 2018, published 2021)
Residues, ends and D or L forms follow the SMILES beside them.

Key:
[1] = In vitro skin permeability test of OVA S/O-S formulations with various base oils (Example 8); assay type: in vitro ADME, Yucatan micropig; conditions: for Average skin permeation amount: Yucatan micropig, pig, 24 h
[2] = no method given; cited from earlier work
[3] = In vitro skin permeability test of hydrophilic polymers in S/O-S formulation containing MGOL-70 (Example 6); conditions: for Skin permeation amount of S/O-S preparation: 1 mg/mL hydrophilic polymer S/O-S formulation in IPM containing 25 mg/mL MGOL-70; for Skin permeation amount of S/O-S preparation / Skin permeation amount of PBS solution: YMP skin, 24 hours, 32° C.; for Enhancement effect: S/O-S preparation versus PBS solution; for Skin permeation amount of PBS solution: hydrophilic polymer in PBS solution
[4] = Measurement of zeta potential by electrophoretic light scattering; assay type: physicochemical; conditions: 1 mg in 1 mL PBS solution, 25° C., Zetasizer Nano ZS
Description: In each 1 mL of a PBS solution was dissolved 1 mg of a part (7 kinds) of the various kinds of hydrophilic polymers shown in the above-mentioned Table 1, and a zeta potential was measured by an electrophoretic light scattering method at 25° C. using Zetasizer Nano ZS (Malvern Panalytical Ltd.).

[5] = In vitro skin permeability test of OVA with glyceryl monooleate/glyceryl monolinoleate (Example 11); assay type: in vitro ADME; conditions: OVA S/O-S in IPM; HR-1 mouse skin, 4 hours
Description: Glyceryl monooleate and glyceryl monolinoleate were dissolved in IPM with the composition shown in the following Table 7 to prepare Formulation 2.
Formulation 1 and Formulation 2 were mixed with a volume ratio of 1:1, and used in the following skin permeability test.
After 4 hours, the receiver phase was recovered, and the amount of the FITC-OVA permeated through the skin was quantified by using a plate reader.

[6] = In vitro skin permeability test of OVA versus concentration of permeation enhancing substance (Example 3); conditions: S/O-S formulation 1 mg/mL OVA in IPM; enhancer solutions of 2, 10, 50 or 100 mg/mL mixed 1:1; 24 hours
[7] = In vitro skin permeability test of CMAP peptide S/O-S formulations with various oily bases (Example 1); assay type: in vitro ADME, Yucatan micropig

| Molecule | pI [2] | Skin permeation amount of S/O-S preparation [3] [μg/cm^2] | Enhancement effect [3] [fold] | Skin permeation amount of PBS solution [3] [μg/cm^2] | ζ potential [4] [mV] | also measured |
| --- | --- | --- | --- | --- | --- | --- |
| CCCCCCCCCCCCCC(=O)OC(C)C [Isopropyl myristate, isopropyl myristate] | – | – | – | – | – | skin permeation effect of OVA by oily base [1]: high skin permeation effect; Average skin permeation amount [1]: 44.3 μg/cm^2 |
| Green fluorescent protein | 6.1 | 35.0 | 8.4 | 4.2 | −9.52 | state of the protein permeated into the skin ([3]; quantified by own fluorescence (GFP) or peroxidase activity (HRP) in skin extract): could be permeated into the skin without being denatured |
| CCCCC/C=C\C/C=C\CCCCCCCC(=O)OCC(O)CO (stereo not drawn) [glyceryl monolinoleate] | – | – | – | – | – | skin permeation amount of the drug with increase in the addition ratio [5]: the skin permeation amount of the drug was increased |
| CCCCCCCC/C=C\CCCCCCCC(=O)OCC(O)CO (stereo not drawn) [MGOL-70, glyceryl monooleate] | – | – | – | – | – | tendency of the enhancing substance on percutaneous permeation of OVA [6]: tend to enhance it |
| CCCCCCCC/C=C\CCCCCCCC(=O)O [oleic acid] | – | – | – | – | – | enhancing effect of percutaneous permeation (amount of skin permeation of the CMAP peptide) [7]: high enhancing effect of percutaneous permeation |
| Bovin serum albumin: Bovine serum albumin, 66.5 kDa, FITC-label | 4.7 | 32.1 | 8.9 | 3.6 | −16.7 | – |
| Lysozyme: Lysozyme, 14.3 kDa, FITC-label | 11 | 6.0 | 1.5 | 4.0 | 8.84 | – |
| CC(C)C[C@H](NC(=O)[C@H](CCC(=O)O)NC(=O)[C@H](CCC(=O)O)NC(=O)[C@@H](NC(=O)[C@H](Cc1ccc(O)cc1)NC(=O)[C@@H](NC(=O)[C@H](CCCNC(=N)N)NC(=O)[C@H](CC(C)C)NC(=O)[C@@H]1CCCN1C(=O)[C@H](C)NC(=O)[C@H](CO)NC(=O)[C@H](CCC(N)=O)NC(=O)[C@H](C)NC(=O)[C@H](CC(=O)O)NC(=O)[C@H](CC(C)C)NC(=O)[C@@H](N)CC(C)C)C(C)C)C(C)C)C(=O)N[C@@H](CCCCN)C(=O)N1CCC[C@H]1C(=O)O [Peptide (CMAP, from Beta-lactoglobulin)] (H-LLDAQSAPLRVYVEELKP-OH; N-terminus and C-terminus assumed) | – | 11.1 | 15 | 1.30 | – | – |
| CC(C)CCCC(C)CCCC(C)CCCCC(C)CCCC(C)CCCC(C)C (stereo not drawn) [Squalane, squalane] | – | – | – | – | – | skin permeation effect of OVA by oily base [1]: high skin permeation effect; Average skin permeation amount [1]: 40.8 μg/cm^2 |
| Cholera toxin subunit B | 6.6 | 39.4 | 4.0 | 9.8 | −3.29 | – |
| Ovalubumin: Ovalbumin (OVA), 45 kDa, labeled with FITC; model hydrophilic drug (protein, UniProt P01012 2-386, looked up, FITC, Ovalbumin (OVA), 45 kDa, labeled with FITC; model hydrophilic drug) Ovalbumin: GSIGAASMEFCFDVFKELKVHHANENIFYCPIAIMSALAMVYLGAKDSTRTQINKVVRFDKLPGFGDSIEAQCGTSVNVHSSLRDILNQITKPNDVYSFSLASRLYAEERYPILPEYLQCVKELYRGGLEPINFQTAADQARELINSWVESQTNGIIRNVLQPSSVDSQTAMVLVNAIVFKGLWEKAFKDEDTQAMPFRVTEQESKPVQMMYQIGLFRVASMASEKMKILELPFASGTMSMLVLLPDEVSGLEQLESIINFEKLTEWTSSNVMEERKIKVYLPRMKMEEKYNLTSVLMAMGITDVFSSSANLSGISSAESLKISQAVHAAHAEINEAGREVVGSAEAGVDAASVSEEFRADHPFLFCIKHIATNAVLFFGRCVSP | 4.9 | 12.5 | 30 | 0.41 | −12.80 | – |
